According to patent US20200246484:

Tested on: MMP-responsive peptide (P3), cleavable 'L' form, conjugated to PEG (2, 5 or 10 kD) and attached directly to 13-nm Au nanoparticle SNAs

With MMP-9 the “MMP9-mediated cleavage kinetics (fluorescence on release of the N-terminal fluorophore from the Au surface)” value was “decrease in cleavage rates for 5 kD and 10 kD PEG compared to 2 kD PEG”.
